A word on the Kd: it is the free concentration of one partner at which half of the binding sites on the other are occupied at equilibrium, for simple one-to-one binding.

Where no end group is shown, it is not given here.

One experiment has as its target T1, recombinant HLA-A*0201 molecule (HLA-A*0201 heavy chain refolded with beta-2 microglobulin) (human). The experiment in a line: ELISA-based HLA refolding assay: recombinant HLA-A*0201 heavy chain with b2m and graded doses of peptide. On the technique in general: An ELISA detects its analyte on a solid surface through an enzyme-linked reagent.
Method: (§1) The amount of de novo-folded HLA/peptide complexes was determined by a quantitative ELISA. Dissociation constants (KD values) were calculated using a standard curve recorded from dilutions of a calibrant HLA/peptide complex.
On to ILDQKINEV [IMA-ODC-001], for which the Kd amounted to 0.2 nM.

For the molecule ALFVRLLALA [IMA-TGFBI-001], the Kd stood at 0.001 nM.

The next experiment addresses T1, recombinant HLA-A*0201 molecule …. The experiment in a line: remark on making pMHC monomers for in vitro stimulation.
Turning to STAPPVHNV [IMA-MUC-001], the binding result was “binds”.

The target is the same in a further experiment. The experiment in a line: ELISA-based HLA refolding assay.
Method: as §1
In the case of KLMDLDVEQL [IMA-PCN-001], the binding result is recorded as “binds”.

As for ILAPVILYI [IMA-NOX-001], the binding result is on record as “binds”.

For YVDPVITSI [IMA-MET-001], the binding result is on record as “binds”.

In the case of LLGATCMFV [IMA-CCN-001], the binding result is reported as “binds”.

Regarding KIFDEILVNA [IMA-TOP-001], the binding result was “binds”.

Turning to ALSNLEVTL (also: acetate salt) [IMA-C20-001], the binding result is “binds”.

The record behind these values is patent US20090148400A1 (IMMATICS BIOTECHNOLOGIES GMHH, published 2009).
